Source: the RNAGym collection of RNA variant scans (doi:10.1093/molbev/msab373)

B1: Azoarcus group I ribozyme (parent)
chain: GUGCCUUGCGCCGGGAAACCACGCAAGGGAUGGUGUCAAAUUCGGCGAAACCUAAGCGCCCGCCCGGGCGUAUGGCAACGCCGAGCCAAGCUUCGGCGCCUGCGCCGAUGAAGGUGUAGAGACUAGACGGCACCCACCUAAGGCAAACGCUAUGGUGAAGGCAUAGUCCAGGGAGUGGCGAAAGUCACACAAACCGG

Variants of: B1
Experiment: reverse-splicing fitness (ratio to wild type); higher = more active; in vitro selection; Mg2+ level not given
How it was run: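 An in vitro group I ribozyme library with randomized positions was T7-transcribed and gel-purified. In triplicate, 10 pmol RNA in EPPS pH 7.5 was reacted with 50 pmoles of a 30-nt RNA substrate for 1 h at 37 °C across several added MgCl2 levels (1–48 mM), then stopped with EDTA. Products were reverse transcribed from a substrate-complementary primer, PCR-amplified and sequenced (HiSeq 4000). Fitness is a variant's read proportion after selection over that before, normalised to wild type.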

Row | Variant | reverse-splicing fitness
1 | GUGCCUUGCGCCGGGAAACCACGCAAGGGAUGGUGUCAAAUUCGGCGAAACCUAAGCGCCCGCCCGGGCGUAUGGCAACGCUGAGCCAAGCUUCGGCGCCUGCGCCGAUGGAGGUGUAGUGACUAGACGGCACCCACCUAAGGCCAACGCUAUGGUGAAGGCAUAGUCCAGGGAGUGGCGAAAGUCACACAAACCGG [C82U A111G A120U A145C] | 0.0379
2 | GUGCCUUGCGCCGGGAAACCACGCAAGGGAUGGUGUCAAAUUCGGCGAAACCUAAGCGCCCGCCCGGGCGUAUGGCAACGCUGAGCCAAGCUUCGGCGCCUGCGCCGAUGGAGGUGUAGGGACUAGACGGCACCCACCUAAGGCAAACGCUAUGGUGAAGGCAUAGUCGAGGGAGCGGCGAAAGUCACACAAACCGG [C82U A111G A120G C169G U176C] | 0.0247
3 | GUGCCUUGCGCCGGGAAACCACGCAAGGGAUGGUGUCAAAUUCGGCGAAACCUAAGCGCCCGCCCGGGCGUAUGGCAACGCUGAGCCAAGCUUCGGCGCCUGCGCCGAUGGAGGUGUAGGGACUAGACGGCACCCACCUAAGGCAAACGCUAUGGUGAAGGCAUAGUCGAGGGAGGGGCGAAAGUCACACAAACCGG [C82U A111G A120G C169G U176G] | 0.00369
4 | GUGCCUUGCGCCGGGAAACCACGCAAGGGAUGGUGUCAAAUUCGGCGAAACCUAAGCGCCCGCCCGGGCGUAUGGCAACGCUGAGCCAAGCUUCGGCGCCUGCGCCGAUGGAGGUGUAGGGACUAGACGGCACCCACCUAAGGCAAACGCUAUGGUGAAGGCAUAGUCGAGGGAGAGGCGAAAGUCACACAAACCGG [C82U A111G A120G C169G U176A] | 0.0186
5 | GUGCCUUGCGCCGGGAAACCACGCAAGGGAUGGUGUCAAAUUCGGCGAAACCUAAGCGCCCGCCCGGGCGUAUGGCAACGCUGAGCCAAGCUUCGGCGCCUGCGCCGAUGGAGGUGUAGGGACUAGACGGCACCCACCUAAGGCAAACGUUAUGGUGAAGGCAUAGUCUAGGGAGAGGCGAAAGUCACACAAACCGG [C82U A111G A120G C150U C169U U176A] | 0.0221
6 | GUGCCUUGCGCCGGGAAACCACGCAAGGGAUGGUGUCAAAUUCGGCGAAACCUAAGCGCCCGCCCGGGCGUAUGGCAACGCUGAGCCAAGCUUCGGCGCCUGCGCCGAUGGAGGUGUAGGGACUAGACGGCACCCACCUAAGGCAAACGUUAUGGUGAAGGCAUAGUCUAGGGAGGGGCGAAAGUCACACAAACCGG [C82U A111G A120G C150U C169U U176G] | 0.00611
7 | GUGCCUUGCGCCGGGAAACCACGCAAGGGAUGGUGUCAAAUUCGGCGAAACCUAAGCGCCCGCCCGGGCGUAUGGCAACGCUGAGCCAAGCUUCGGCGCCUGCGCCGAUGGAGGUGUAGGGACUAGACGGCACCCACCUAAGGCAAACGUUAUGGUGAAGGCAUAGUCUAGGGAGCGGCGAAAGUCACACAAACCGG [C82U A111G A120G C150U C169U U176C] | 0.015
8 | GUGCCUUGCGCCGGGAAACCACGCAAGGGAUGGUGUCAAAUUCGGCGAAACCUAAGCGCCCGCCCGGGCGUAUGGCAACGCUGAGCCAAGCUUCGGCGCCUGCGCCGAUGGAGGUGUAGGGACUAGACGGCACCCACCUAAGGCAAACGUUAUGGUGAAGGCAUAGUCGAGGGAGAGGCGAAAGUCACACAAACCGG [C82U A111G A120G C150U C169G U176A] | 0.0144
9 | GUGCCUUGCGCCGGGAAACCACGCAAGGGAUGGUGUCAAAUUCGGCGAAACCUAAGCGCCCGCCCGGGCGUAUGGCAACGCUGAGCCAAGCUUCGGCGCCUGCGCCGAUGGAGGUGUAGGGACUAGACGGCACCCACCUAAGGCAAACGUUAUGGUGAAGGCAUAGUCGAGGGAGGGGCGAAAGUCACACAAACCGG [C82U A111G A120G C150U C169G U176G] | 0.00447
10 | GUGCCUUGCGCCGGGAAACCACGCAAGGGAUGGUGUCAAAUUCGGCGAAACCUAAGCGCCCGCCCGGGCGUAUGGCAACGCUGAGCCAAGCUUCGGCGCCUGCGCCGAUGGAGGUGUAGGGACUAGACGGCACCCACCUAAGGCAAACGUUAUGGUGAAGGCAUAGUCGAGGGAGCGGCGAAAGUCACACAAACCGG [C82U A111G A120G C150U C169G U176C] | 0.0174
11 | GUGCCUUGCGCCGGGAAACCACGCAAGGGAUGGUGUCAAAUUCGGCGAAACCUAAGCGCCCGCCCGGGCGUAUGGCAACGCUGAGCCAAGCUUCGGCGCCUGCGCCGAUGGAGGUGUAGGGACUAGACGGCACCCACCUAAGGCAAACGCUAUGGUGAAGGCAUAGUCUAGGGAGUGGCGAAAGUCACACAAACCGG [C82U A111G A120G C169U] | 0.0109
12 | GUGCCUUGCGCCGGGAAACCACGCAAGGGAUGGUGUCAAAUUCGGCGAAACCUAAGCGCCCGCCCGGGCGUAUGGCAACGCUGAGCCAAGCUUCGGCGCCUGCGCCGAUGGAGGUGUAGGGACUAGACGGCACCCACCUAAGGCAAACGCUAUGGUGAAGGCAUAGUCAAGGGAGUGGCGAAAGUCACACAAACCGG [C82U A111G A120G C169A] | 0.0106
13 | GUGCCUUGCGCCGGGAAACCACGCAAGGGAUGGUGUCAAAUUCGGCGAAACCUAAGCGCCCGCCCGGGCGUAUGGCAACGCUGAGCCAAGCUUCGGCGCCUGCGCCGAUGGAGGUGUAGGGACUAGACGGCACCCACCUAAGGCAAACGCUAUGGUGAAGGCAUAGUCGAGGGAGUGGCGAAAGUCACACAAACCGG [C82U A111G A120G C169G] | 0.0125
14 | GUGCCUUGCGCCGGGAAACCACGCAAGGGAUGGUGUCAAAUUCGGCGAAACCUAAGCGCCCGCCCGGGCGUAUGGCAACGCUGAGCCAAGCUUCGGCGCCUGCGCCGAUGGAGGUGUAGUGACUAGACGGCACCCACCUAAGGCCAACGAUAUGGUGAAGGCAUAGUCCAGGGAGUGGCGAAAGUCACACAAACCGG [C82U A111G A120U A145C C150A] | 0.00504
15 | GUGCCUUGCGCCGGGAAACCACGCAAGGGAUGGUGUCAAAUUCGGCGAAACCUAAGCGCCCGCCCGGGCGUAUGGCAACGCUGAGCCAAGCUUCGGCGCCUGCGCCGAUGGAGGUGUAGGGACUAGACGGCACCCACCUAAGGCAAACGUUAUGGUGAAGGCAUAGUCUAGGGAGUGGCGAAAGUCACACAAACCGG [C82U A111G A120G C150U C169U] | 0.00996
